Assay results reported in patent US20150010572A1 (SAMSUNG ELECTRONICS, published 2015).
Residue numbers refer to the chain shown, from its start.

T1: Ang-2 (R&D systems; 623-AN-025/CF) (human, UniProt O15123 19-496)
T1 sequence: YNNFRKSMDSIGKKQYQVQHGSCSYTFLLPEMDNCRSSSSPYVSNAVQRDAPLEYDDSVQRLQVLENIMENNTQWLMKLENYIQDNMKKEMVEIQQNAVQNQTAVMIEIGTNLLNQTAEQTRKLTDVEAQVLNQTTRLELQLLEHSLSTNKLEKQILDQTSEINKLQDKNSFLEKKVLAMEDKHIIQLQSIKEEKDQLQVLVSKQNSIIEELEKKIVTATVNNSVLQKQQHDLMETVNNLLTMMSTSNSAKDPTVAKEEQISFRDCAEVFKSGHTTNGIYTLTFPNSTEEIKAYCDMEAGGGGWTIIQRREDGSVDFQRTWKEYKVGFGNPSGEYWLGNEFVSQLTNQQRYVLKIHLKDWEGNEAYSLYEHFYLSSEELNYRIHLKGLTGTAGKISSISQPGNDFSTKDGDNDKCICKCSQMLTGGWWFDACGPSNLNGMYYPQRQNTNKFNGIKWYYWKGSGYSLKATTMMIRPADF

T2: mutant Ang-2 protein, Y460 substituted with alanine (FLAG-tagged at N-terminal) (human, UniProt O15123 281-496, limits assumed)
T2 chain: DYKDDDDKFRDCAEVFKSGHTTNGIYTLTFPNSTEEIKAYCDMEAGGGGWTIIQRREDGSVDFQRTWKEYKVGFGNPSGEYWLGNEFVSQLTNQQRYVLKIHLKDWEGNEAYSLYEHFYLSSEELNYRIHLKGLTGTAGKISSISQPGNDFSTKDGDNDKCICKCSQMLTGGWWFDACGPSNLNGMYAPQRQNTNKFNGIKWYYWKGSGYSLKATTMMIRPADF

B1: SAIT-Ang-2-AB-m8B3 (antibody, V domains shown)
VH: DVQLQESGPGLVKPSQSLSLSCTVTGYSIASDYAWNWIRQFPGNKVEWMGYINYRGNTDYNPSLKSRSSINRDTSKNQFFLQLNSVTTGDTATYYCARGNFEGAMDYWGQGTSVTVSS
VL: TIVMTQTPKFLLVSAGDRITITCKASQSVSNDVAWYQQKPGQSPKLLIYYASNRYPGVPDRFTGSGYGTDFTFTISTVQAEDLAVYFCQQDYTSPWTFGGGTELEIK
notes: also called KCLRF-BP-00293
B2: SAIT-Ang-2-AB-m2E7 (antibody, V domains shown)
VH: DLQLQESGPGLVKPSQSLSLTCTVTGYSITSDYAWNWIRQFPGNKLEWMGYISYSGSTSYNPSLKSRISITRDTSKNQFFLQLNSLTTEDTATYYCARGDYGNYVGPMDYWGQGTSVTVSS
VL: B1 VL with T1S, I19V, Q37R, P56T, T93S, W96L, G100A, G101R, E103K, I106L
notes: also called KCLRF-BP-00294

What was measured:
[1] = molecular target: T1, Ang-2 (R&D systems; 623-AN-025/CF); experiment: cell-based or functional assay
[2] = molecular target: mutant Ang-2 protein, A449 substituted with alanine (FLAG-tagged at N-terminal) (human) (UniProt O15123); experiment: ELISA, antibody coated, 250 ng FLAG-tagged mutant Ang-2, anti-FLAG-HRP, OD450 relative to native Ang-2
[3] = molecular target: T2, mutant Ang-2 protein, Y460 substituted …; experiment: as above
Method: Each well of a 96-well MaxiSorp™ flat-bottom plate (Nunc) was coated with 50 ul (microliter) of 1000 nM antibodies (Example 2). Then, the plate was washed five times with a 0.05% (v/v) Tween-20 containing PBS (PBST) and blocked with a 1% (v/v) BSA containing PBS at a room temperature for 2 hours. 250 ng of each mutant Ang-2 protein obtained by substituting S417, Q418, P419, N421, 1434, D448, A449, P452, Y460, N467, K468, or F469 residue of Ang-2 protein tagged with a FLAG sequence ([…], Sigma) at its N-terminal with alanine was added to each well of the plate, which was then allowed to react at a room temperature for 2 hours.
The plate was washed five times with a 0.05% (v/v) Tween-20 containing PBS, reacted with an anti-FLAG antibody (SIGMA) conjugated with HRP which was diluted in a 1% (v/v) BSA containing PBS at a ratio of 1:5,000 (v/v) at a room temperature for 1 hour, and washed five times with a 0.1% (v/v) Tween-20 containing PBS.
Finally, 50 ul of TMB substrates (Cell signaling) was added to each well of the plate to induce color development reaction at a room temperature for 3 min. and the reaction was ceased by the addition of 50 ul of Stop solution (Cell signaling) and then, OD450 values were measured on a plate reader (Molecular Devices). By comparing binding affinities with mutated Ang-2 to those of unmutated Ang-2, each epitope of Ang-2 antibodies was identified. The thus obtained measurement results of the binding affinities (%) of mutant Ang-2 against the binding affinity of the native Ang-2 are shown in the following Table 9.

| Binder | Ang-2-depedent Cell Adhesion Degree (%) [1] [%] | % at RBD binding (mutant Ang-2 against native Ang-2) [2] [%] | % at RBD binding (mutant Ang-2 against native Ang-2) [3] [%] |
| --- | --- | --- | --- |
| B1 | 23.6 | 88.5 | 100 |
| B2 | 28.1 | 90.9 | 98.7 |
